According to US20150004189A1:

Assays:
[1] = target: HLA-DP DPB1*0101 (human); experiment: inhibition of radiolabeled peptide binding to purified HLA-DP
[2] = target: HLA-DP DPB1*0501 (human); experiment: as above
[3] = target: HLA-DP DPB1*0402 (human); experiment: as above
[4] = target: HLA-DP DPB1*2001 (human); experiment: as above
[5] = target: HLA-DP DPB1*0201 (human); experiment: as above
[6] = target: HLA-DR molecule DRB1*0162 (so in the source) (human); experiment: radiolabeled-peptide competition on purified HLA class II
[7] = target: HLA DP molecule DPB1*2001 (human); experiment: inhibition of radiolabeled peptide binding to purified HLA DP
[8] = target: HLA-DQ molecule DQB1*0502 (human); experiment: competition: inhibition of radiolabeled peptide binding to purified HLA
[9] = target: HLA-DQ molecule DQB1*0503 (human); experiment: as above
[10] = target: HLA DP molecule DPB1*1401 (human); experiment: inhibition of radiolabeled peptide binding to purified HLA DP
[11] = target: HLA-DQ molecule DQB1*0602 (human); experiment: competition: inhibition of radiolabeled peptide binding to purified HLA
[12] = target: HLA-DQ molecule DQB1*0202 (human); experiment: as above
[13] = target: HLA DP molecule DPB1*1401 (human); experiment: competition vs radiolabeled peptide, purified HLA-DP
[14] = target: HLA DP molecule DPB1*2001 (human); experiment: as above
[15] = target: HLA DP molecule DPB1*0501 (human); experiment: as above
[16] = target: HLA-DP DPB1*1401 (human); experiment: inhibition of radiolabeled peptide binding to purified HLA-DP

| IC50 [1] | IC50 [2] | IC50 [4] | Substance | also measured |
| --- | --- | --- | --- | --- |
| – | – | 2570 nM | Aln g 1 (16-30) peptide 3324.0003 | IC50 [5]: 36 nM |
| 391 nM | 3.3 nM | – | Aln g 1 (111-125) peptide 3324.0007 | – |
| 4090 nM | – | 5920 nM | Bet v 1 (96-110) peptide 3324.0353 | IC50 [16]: 5980 nM |
| 279 nM | 2.2 nM | 13000 nM | Bet v 1 (111-125) peptide 3324.0352 | IC50 [16]: 7590 nM |
| – | – | 3.3 nM | Bet v 6 (206-220) peptide 3324.0387 | IC50 [16]: 3770 nM |
| 1610 nM | 1050 nM | – | Bet v 6 (211-225) peptide 3324.0386 | – |
| – | 7500 nM | 4960 nM | Cha o 1 peptide 96-110 … (Peptide ID 3324.0523) | IC50 [16]: 525 nM |
| 692 nM | – | 13600 nM | Cup a 1 peptide 71-85 … (Peptide ID 3324.0607) | IC50 [16]: 3580 nM |
| 8240 nM | – | 25500 nM | Cup a 1 peptide 316-330 … (Peptide ID 3324.0606) | IC50 [16]: 155 nM |
| 2360 nM | – | 25700 nM | Cup s 1 peptide 96-110 … (Peptide ID 3324.0624) | – |
| – | – | 6270 nM | Dac g 2 peptide 11-25 … (Peptide ID 3324.0657) | IC50 [16]: 8100 nM |
| 1350 nM | 717 nM | – | Dac g 2 peptide 16-30 … (Peptide ID 3324.0658) | IC50 [16]: 32000 nM |
| – | 1440 nM | – | Dac g 4 peptide 1-15 … (Peptide ID 3324.0663) | – |
| 8430 nM | – | – | Der f 1 (136-150) peptide 3324.0666 | – |
| – | – | 7.7 nM | Der p 1 (131-145) peptide 3324.0832 | – |
| – | 35200 nM | – | Der p 1 (176-190) peptide 3324.0831 | – |
| – | – | 17 nM | Der p 4 (86-100) peptide 3324.0981 | IC50 [5]: 220 nM |
| 1640 nM | 5070 nM | 1000 nM | Der p 4 (321-335) peptide 3324.0977 | – |
| 324 nM | – | – | Der p 4 (381-395) peptide 3324.0986 | – |
| – | 2230 nM | 9000 nM | Der p 4 (386-400) peptide 3324.0978 | – |
| 323 nM | 76 nM | 379 nM | Der p 4 (476-490) peptide 3324.0975 | IC50 [3]: 83 nM |
| 173 nM | – | 509 nM | Der p 4 (482-496) peptide 3324.0971 | IC50 [16]: 11400 nM; IC50 [3]: 66 nM |
| – | – | 7940 nM | Lol p 2 peptide 51-65 … (Peptide ID 3324.1139) | – |
| 17 nM | 80 nM | 274 nM | Que a 1 peptide 16-30 … (Peptide ID 3324.1585) | – |
| 922 nM | – | 558 nM | Sal k 1 1 peptide 191-205, … (Peptide ID 3324.1590) | IC50 [16]: 1920 nM |
| 56 nM | – | 4880 nM | Sal k 1 1 peptide 321-335, … (Peptide ID 3324.1589) | – |

More lines, now with the values behind:

| Substance | IC50 [1] | IC50 [2] | IC50 [4] | also measured |
| --- | --- | --- | --- | --- |
| Aln g 1 (11-25) peptide 3324.0004 | 85 nM | 493 nM | – | IC50 [3]: 1500 nM |
| Alt a 1 peptide 3324.0013 (position 111) | – | – | – | IC50 [6]: 856 nM |
| Alt a 1 peptide 3324.0014 (position 116) | – | – | – | IC50 [6]: 504 nM |
| Alt a 1 peptide 3324.0015 (position 6) | – | – | – | IC50 [6]: 871 nM |
| Alt a 1 peptide 3324.0017 (position 11) | – | – | – | IC50 [6]: 956 nM |
| Alt a 1 peptide, position 6 (Peptide ID 3324.0015) | – | – | – | IC50 [7]: 2090 nM |
| Alt a 1 peptide, position 6, Peptide ID 3324.0015 | – | – | – | IC50 [8]: 7020 nM; IC50 [9]: 7260 nM |
| Alt a 1 peptide, position 11 (Peptide ID 3324.0017) | – | – | – | IC50 [10]: 125 nM; IC50 [7]: 184 nM |
| Alt a 1 peptide, position 11, Peptide ID 3324.0017 | – | – | – | IC50 [8]: 8000 nM; IC50 [11]: 21 nM; IC50 [9]: 223 nM |
| Alt a 1 peptide, position 111 (Peptide ID 3324.0013) | – | – | – | IC50 [10]: 4370 nM |
| Alt a 1 peptide, position 111, Peptide ID 3324.0013 | – | – | – | IC50 [12]: 8360 nM; IC50 [9]: 19400 nM |
| Alt a 1 peptide, position 116 (Peptide ID 3324.0014) | – | – | – | IC50 [7]: 200 nM |
| Alt a 1 peptide, position 116, Peptide ID 3324.0014 | – | – | – | IC50 [8]: 8970 nM; IC50 [11]: 2230 nM |
| Alt a 1 peptide, position 141 (Peptide ID 3324.0011) | – | – | – | IC50 [10]: 3390 nM; IC50 [7]: 8830 nM |
| Alt a 1 peptide, position 141, Peptide ID 3324.0011 | – | – | – | IC50 [8]: 6010 nM; IC50 [11]: 4950 nM; IC50 [12]: 31700 nM; IC50 [9]: 9100 nM |
| Alt a 1 peptide, position 143 (Peptide ID 3324.0016) | – | – | – | IC50 [10]: 1430 nM; IC50 [7]: 8650 nM |
| Alt a 1 peptide, position 143, Peptide ID 3324.0016 | – | – | – | IC50 [8]: 7750 nM; IC50 [11]: 70 nM; IC50 [12]: 7020 nM |
| Alt a 5 peptide, position 51, … (Peptide ID 3324.0065) | – | – | – | IC50 [13]: 50 nM; IC50 [14]: 7500 nM |
| Alt a 6 peptide, position 161, … (Peptide ID 3324.0073) | – | – | – | IC50 [14]: 7640 nM |
| Alt a 7 peptide, position 6, … (Peptide ID 3324.0085) | – | – | – | IC50 [15]: 47 nM; IC50 [14]: 1290 nM |

| Substance | IC50 [1] | IC50 [2] | IC50 [4] | also measured |
| --- | --- | --- | --- | --- |
| Alt a 7 peptide, position 190, … (Peptide ID 3324.0080) | – | – | – | IC50 [13]: 938 nM; IC50 [14]: 77 nM |
| Cha o 1 (86-100) peptide 3324.0517 | – | 11 nM | 83 nM | – |
| Cla h 5 peptide, position 6, … (Peptide ID 3324.0576) | – | – | – | IC50 [14]: 143 nM |
| Cla h 6 peptide, position 161, … (Peptide ID 3324.0588) | – | – | – | IC50 [13]: 9670 nM; IC50 [14]: 29600 nM |
| Cla h 8 peptide, position 151, … (Peptide ID 3324.0603) | – | – | – | IC50 [13]: 36 nM |
| Cup a 1 peptide 66-80 … (Peptide ID 3324.0604) | 6940 nM | – | 23900 nM | IC50 [16]: 29 nM |
| Cup s 1 peptide 86-100 … (Peptide ID 3324.0615) | 676 nM | – | 9180 nM | – |
| Cup s 1 peptide 91-105 … (Peptide ID 3324.0618) | 806 nM | 179 nM | 35400 nM | IC50 [3]: 75 nM |
| Der p 1 (136-150) peptide 3324.0829 | 1200 nM | 4930 nM | 449 nM | IC50 [16]: 9420 nM |
| Der p 1 (226-240) peptide 3324.0840 | – | 4000 nM | 310 nM | IC50 [3]: 32 nM |
| Der p 4 (96-110) peptide 3324.0987 | 15500 nM | 3450 nM | 2930 nM | – |
| Der p 4 (251-265) peptide 3324.0976 | – | – | 247 nM | – |
| Der p 4 (411-425) peptide 3324.0980 | 400 nM | – | 6.9 nM | IC50 [16]: 703 nM; IC50 [3]: 1510 nM |
| Der p 4 (416-430) peptide 3324.0974 | 9.1 nM | 13 nM | 3.5 nM | – |
| Lol p 2 peptide 56-70 … (Peptide ID 3324.1140) | – | 12400 nM | – | – |
| Lol p 11 peptide 111-125 … (Peptide ID 3324.1138) | 205 nM | 0.25 nM | 223 nM | – |
| Lol p 11 peptide 116-130 … (Peptide ID 3337.0029) | – | 51 nM | 8.1 nM | IC50 [16]: 18100 nM |
| Que a 1 peptide 11-25 … (Peptide ID 3324.1587) | 114 nM | 341 nM | – | – |
| Que a 1 peptide 21-35 … (Peptide ID 3324.1588) | 141 nM | 242 nM | 3490 nM | – |
| Que a 1 peptide 141-155 … (Peptide ID 3324.1584) | 21 nM | 31 nM | 1300 nM | IC50 [16]: 40 nM |
